# Measurements: patent publication US12258584B2, “Methods and systems for converting precursor cells into intestinal tissues through directed differentiation” (Children's Hospital Medical Center, priority 2010, dated 2025)
# “Also recorded” adds a separate entry of the source.
# How the values were obtained:
# Format in all cases: cell-based, human
# hESC-H9 = test: Affymetrix microarray analysis of transcript levels during DE formation; conditions: 3-day activin treated vs undifferentiated cultures, label = gene symbol of the transcript
# Protocol: (§1) FIGS. 6a and 6b illustrate exemplary embodiments in accordance with the present invention, depicting characterization of DE formation from hESC and iPSC lines by immuno-fluorescence (IF) and Microarray analysis. (a) Undifferentiated hESCs stained with the pluripotency marker OCT4 (green) were treated for 3 days with ActivinA. […] (b) Transcriptional profile of DE induction. hESC-H9 and iPSC lines 3.5, 3.6 and 3.12 were analyzed before and after DE formation (activin differentiation) by Affymetrix DNA microarray analysis.
# (§2) For microarray analysis, RNA was isolated from undifferentiated and 3-day activin treated hESC and iPSC cultures and used create target DNA for hybridization to Affymetrix Human 1.0 Gene ST Arrays using standard procedures (Affymetrix, Santa Clara, CA). Independent biological triplicates were performed for each cell line and condition. Affymetrix microarray Cel files were subjected to Robust Multichip Average (RMA) normalization in GeneSpring 10.1. Probe sets were first filtered for those that are overexpressed or underexpressed and then subjected to statistical analysis for differential expression by 3 fold or more between undifferentiated and differentiated cultures with p<0.05 using the Students T-test. Log 2 gene expression ratios were then subjected to hierachical clustering using the standard correlation distance metric as implemented in GeneSpring.
# iPSC line 3.12 = test: as above; conditions: 3-day activin treated vs undifferentiated cultures, label = gene symbol of the transcript
# Protocol: as §1, §2
# iPSC3.4 = test: as above; conditions: 3-day activin treated vs undifferentiated cultures, label = gene symbol of the transcript
# Protocol: as §2
# H9 hESCs = test: Hindgut spheroid formation from hESC-H9 definitive endoderm after growth factor treatment; conditions: for Average # organoids per well / Total # organoids (# organoids/wells counted): hESC-H9 definitive endoderm
# Protocol: (§3) Differentiation of PSCs into Definitive Endoderm (DE). Differentiation into Definitive Endoderm was carried out as previously described. Briefly, a 3 day ActivinA (R&D systems) differentiation protocol was used. Cells were treated with ActivinA (100 ng/ml) for three consecutive days in RPMI 1640 media (Invitrogen) with increasing concentrations of 0%, 0.2%, 2% HyClone defined FBS (dFBS) (Thermo Scientific).
# (§4) The following tables illustrate the effects of growth factor treatment of hESCs and iPSCs. Generation of hindgut spheroids was tracked for (Table 1A) days 2-5 following growth factor treatment for H9 hESCs or (Table 1B) days 2-4 of growth factor treatment for iPSCs. Definitive endoderm was treated with either 500 ng/ml of FGF4 alone or 500 ng/ml of FGF4+Wnt3a. For both HESCs and iPSCs, hindgut spheroids formed much more robustly under FGF4+Wnt3a conditions. […] Over the course of 4 days, FGF4+Wnt3a treated H9 endoderm generated an average of 4.5 fold more spheroids than that treated with FGF4 alone.
# (§5) Generation of hindgut spheroids was tracked for days 2-5 of growth factor treatment (H9 hESCs, Table 1A) or days 2-4 of growth factor treatment (iPSCs, Table 1B) for endoderm being given either 500 ng/ml FGF4 alone or 500 ng/ml FGF4+Wnt3a. In both cell lines, hindgut spheroids were much more robustly generated in FGF4+Wnt3a conditions. Over the course of 4 days, FGF4+Wnt3a treated H9 endoderm generated an average of 4.5 fold more spheroids than FGF4 treated alone.
# (§6) Directed differentiation into hindgut and intestinal organoids. After differentiation into definitive endoderm, cells were incubated in 2% dFBS-DMEM/F12 with either 50 or 500 ng/ml FGF4 and/or 50 or 500 ng/ml Wnt3a (R&D Systems) for 2-4 days. After 2 days with treatment of growth factors, 3-dimensional floating spheroids were present in the culture. 3-dimensional spheroids were transferred into an in vitro system previously described to support intestinal growth and differentiation. Briefly, spheroids were embedded in Matrigel (BD Bioscience #356237) containing 500 ng/ml R-Spondin1 (R&D Systems), 100 ng/ml Noggin (R&D Systems) and 50 ng/ml EGF (R&D Systems). After the Matrigel solidified, media (Advanced DMEM/F12 (Invitrogen) supplemented with L-Glutamine, […], N2 supplement (R&D Systems), B27 supplement (Invitrogen), and Pen/Strep containing growth factors was overlaid and replaced every 4 days.
# iPSC-3.5 = test: Hindgut spheroid formation from iPSC-3.5 definitive endoderm after growth factor treatment; conditions: 500 ng/ml; for Average # organoids per well / Total # organoids (# organoids/wells counted): iPSC-3.5 definitive endoderm
# Protocol: as §3, §4, §5, §6
# [1] = tested on: H9-HES cells differentiated into definitive endoderm; test: Posteriorization of definitive endoderm: foregut (ALB, PDX1) and hindgut (CDX2) marker expression by RT-qPCR and immunofluorescence; conditions: DE treated 24-48 hours; up to 500 ng/ml; RT-qPCR relative to no growth factor control
# Protocol: Differentiation of DE in Permissive Media (Differentiation Protocol for FIG. 1). After differentiation into definitive endoderm, cells were incubated in DMEM/F12 plus 2% defined fetal bovine serum (dFBS) with either 0, 50, or 500 ng/ml of FGF4 and/or 0, 50, or 500 ng/ml of Wnt3a (R&D Systems) for 6, 48, or 96 hours. Cultures were then grown in permissive media consisting of DMEM plus 10% fetal bovine serum (FBS) for an additional 7 days.
# FIGS. 1a through 1d illustrate exemplary embodiments of the present invention. FGF4 and Wnt3a act synergistically in a temporal and dose-dependent manner to specify stable posterior endoderm fate. ActivinA (100 ng/ml) was used to differentiate H9-HES cells into definitive endoderm (DE). DE was treated with the posteriorizing factors FGF4 (50, 500 ng), Wnt3a (50, 500 ng) or both for 6, 48 or 96 hours. Cells were then cultured in a permissive medium without growth factors for an additional seven days and analyzed for expression of foregut markers (ALB, PDX1) and the hindgut marker (CDX2) by RT-qPCR (a) and immunofluorescence (b-d). FGF4/Wnt-mediated changes in marker expression in (a) is relative to 3-day activin treated DE cultures that were grown for identical lengths of time in the absence of FGF4 or Wnt3a (control). […] Error bars denote standard deviation of triplicates. Significance is shown by; * (p<0.05), ^ (p<0.001), # (p<0.0001).
# FIGS. 7a and 7b illustrate exemplary embodiments in accordance with the present invention, depicting time and concentration dependent induction of CDX2 by FGF4 and Wnt3a. (a) FGF4 and Wnt3a up-regulate CDX2 in a concentration dependant manner. 3-day ActivinA treated hESCs were treated for 48 hours with Wnt3a at 50 ng/ml or 500 ng/ml or FGF4 at 50 ng/ml or 500 ng/ml, or increasing concentrations of FGF4+Wnt3a. Cells were analyzed after 48 hours of treatment. […] CDX2 expression was normalized to the internal control beta-tubulin, and is shown relative to a 48 hour control cultured in the absence of growth factors. (b) FGF4 and Wnt3a up-regulate CDX2 in a time dependant manner. 48 hours of exposure to FGF4+Wnt3a was required for the most robust induction of CDX2. All time points shown are set relative to a 0 hour no growth factor control. 500 ng/ml of FGF4, Wnt3a or FGF4+Wnt3a was used for all time points. Note that 24 hour and 48 controls, in the absence of growth factors, show a significant and spontaneous up-regulation of CDX2. Error bars denote standard deviation of triplicates. Significance is shown by; * (p<0.05)
# RNA was isolated using the Nucleospin II RNA isolation kit (Clonetech). […] Finally, qPCR was carried out using Quantitect SybrGreen MasterMix (Qiagen) on a Chromo4 Real-Time PCR (BioRad). […]
# [2] = 500 ng/ml, 2 days (48 h) of GF treatment
# [3] = 500 ng/ml, 3 days (72 h) of GF treatment
# [4] = 500 ng/ml, 4 days (96 h) of GF treatment
# [5] = 500 ng/ml, 5 days (120 h) of GF treatment
molecule,measurement,setting,value
NPPB,"DIFF'D-H9] VS [IFF'D-H9] (folds), variation of transcript level during DE formation",hESC-H9,2.88 folds
same,"[DIFF'D-IPSC3.12] VS [IFF'D-IPSC3.12] (folds), variation of transcript level during DE formation",iPSC line 3.12,3.62 folds
same,"[Diff'd-iPSC3.4] vs [Undiff d-iPSC3.4] (folds), variation of transcript level during DE formation",iPSC3.4,3.57 folds
NODAL,"DIFF'D-H9] VS [IFF'D-H9] (folds), variation of transcript level during DE formation",hESC-H9,5.66 folds
same,"[DIFF'D-IPSC3.12] VS [IFF'D-IPSC3.12] (folds), variation of transcript level during DE formation",iPSC line 3.12,5.77 folds
same,"[Diff'd-iPSC3.4] vs [Undiff d-iPSC3.4] (folds), variation of transcript level during DE formation",iPSC3.4,5.00 folds
DKK1,"DIFF'D-H9] VS [IFF'D-H9] (folds), variation of transcript level during DE formation",hESC-H9,9.66 folds
same,"[DIFF'D-IPSC3.12] VS [IFF'D-IPSC3.12] (folds), variation of transcript level during DE formation",iPSC line 3.12,6.27 folds
same,"[Diff'd-iPSC3.4] vs [Undiff d-iPSC3.4] (folds), variation of transcript level during DE formation",iPSC3.4,7.27 folds
"FGF4: fibroblast growth factor 4, soluble growth factor (R&D Systems) known to posteriorize endoderm (protein, UniProt P08620 31-206, looked up) Fibroblast growth factor 4: APTAPNGTLEAELERRWESLVALSLARLPVAAQPKEAAVQSGAGDYLLGIKRLRRLYCNVGIGFHLQALPDGRIGGAHADTRDSLLELSPVERGVVSIFGVASRFFVAMSSKGKLYGSPFFTDECTFKEILLPNNYNAYESYKYPGMFIALSKNGKTKKGNRVSPTMKVTHFLPRL",CDX2 staining of spheroids / 3D structures,H9 hESCs; CDX2 immunostaining of treated DE cultures,weakly CDX2+
same,fold fewer spheroids generated (versus FGF4+Wnt3a treated cultures),"H9 hESCs; Table 1A, H9 hESC definitive endoderm",4-10 fold
same,Average # organoids per well,H9 hESCs; [2],0
same,Total # organoids (# organoids/wells counted),H9 hESCs; [2],0/5
same,Average # organoids per well,H9 hESCs; [3],0
same,Total # organoids (# organoids/wells counted),H9 hESCs; [3],0/5
same,Average # organoids per well,H9 hESCs; [4],8.8
same,Total # organoids (# organoids/wells counted),H9 hESCs; [4],44/5
same,Average # organoids per well,H9 hESCs; [5],4.75
same,Total # organoids (# organoids/wells counted),H9 hESCs; [5],19/4
same,Average # organoids per well,iPSC-3.5; 2 days (48 h) of GF treatment,0
same,Total # organoids (# organoids/wells counted),iPSC-3.5; 2 days (48 h) of GF treatment,0/4
same,Average # organoids per well,iPSC-3.5; 3 days (72 h) of GF treatment,2.5
same,Total # organoids (# organoids/wells counted),iPSC-3.5; 3 days (72 h) of GF treatment,10/4
same,Average # organoids per well,iPSC-3.5; 4 days (96 h) of GF treatment,3.5
same,Total # organoids (# organoids/wells counted),iPSC-3.5; 4 days (96 h) of GF treatment,14/4
same,induction of hindgut marker CDX2 expression / posterior fate,[1],neither factor alone was sufficient to robustly promote a posterior fate; also recorded: modest changes in CDX2 expression
"Wnt3a: soluble Wnt ligand (R&D Systems), growth factor known to posteriorize endoderm (protein, UniProt P56704 19-352, looked up) Protein Wnt-3a: SYPIWWSLAVGPQYSSLGSQPILCASIPGLVPKQLRFCRNYVEIMPSVAEGIKIGIQECQHQFRGRRWNCTTVHDSLAIFGPVLDKATRESAFVHAIASAGVAFAVTRSCAEGTAAICGCSSRHQGSPGKGWKWGGCSEDIEFGGMVSREFADARENRPDARSAMNRHNNEAGRQAIASHMHLKCKCHGLSGSCEVKTCWWSQPDFRAIGDFLKDKYDSASEMVVEKHRESRGWVETLRPRYTYFKVPTERDLVYYEASPNFCEPNPETGSFGTRDRTCNVSSHGIDGCDLLCCGRGHNARAERRREKCRCVFHWCCYVSCQECTRVYDVHTCK",in vitro gut-tube morphogenesis / spheroid formation,"H9 hESCs; hESC definitive endoderm, 500 ng/ml",never observed; also recorded: never formed spheroids; also recorded: not observed
same,spheroid formation,iPSC-3.5; iPSC definitive endoderm,never formed spheroids
same,induction of hindgut marker CDX2 expression / posterior fate,[1],neither factor alone was sufficient to robustly promote a posterior fate; also recorded: modest changes in CDX2 expression
